± gives the standard error. For part of these data: Fewer inactive variants are shown than the library holds.
B1: glmS ribozyme (parent)
chain: AUAAAAGCGCCAGAACUACAGAAAUGUAGUUGACGAGGAGGAGGUUUAUCGAAUUUUCGGCGGAUGCCUCCAAA

Columns and labels:
Conditions in all cases: with glucosamine-6-phosphate
glucosamine-6-phosphate [1] = variants of: B1; experiment: kcat; higher = faster cleavage; RNA array
Outline: (§1)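 Glucosamine-6-phosphate in HEPES/KCl/Mg(OAc)2 buffer, at 40 μM to 10 mM, was flowed over barcoded ribozyme variants transcribed in situ by E. coli RNA polymerase on sequenced MiSeq chips. Tracking was through a hybridised Cy3 probe at 37 °C. kobs, kcat and KM came from exponential decay fits and weighted Michaelis–Menten fits of normalised per-tile medians.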

glucosamine-6-phosphate [2] = variants of: B1; experiment: KM; higher = weaker cofactor use; RNA array
Outline: as §1

glucosamine-6-phosphate [3] = variants of: B1; experiment: self-cleavage kobs at 40 uM GlcN6P; higher = faster cleavage; RNA array
Outline: as §1

glucosamine-6-phosphate [4] = variants of: B1; experiment: self-cleavage kobs at 160 uM GlcN6P; higher = faster cleavage; RNA array
Outline: as §1

glucosamine-6-phosphate [5] = variants of: B1; experiment: self-cleavage kobs at 640 uM GlcN6P; higher = faster cleavage; RNA array
Outline: as §1

glucosamine-6-phosphate [6] = variants of: B1; experiment: self-cleavage kobs at 2500 uM GlcN6P; higher = faster cleavage; RNA array
Outline: as §1

glucosamine-6-phosphate [7] = variants of: B1; experiment: self-cleavage kobs at 10000 uM GlcN6P; higher = faster cleavage; RNA array
Outline: as §1

Variant | kcat (glucosamine-6-phosphate [1]) | KM (glucosamine-6-phosphate [2]) | self-cleavage kobs at 40 uM GlcN6P (glucosamine-6-phosphate [3]) | self-cleavage kobs at 160 uM GlcN6P (glucosamine-6-phosphate [4]) | self-cleavage kobs at 640 uM GlcN6P (glucosamine-6-phosphate [5]) | self-cleavage kobs at 2500 uM GlcN6P (glucosamine-6-phosphate [6]) | self-cleavage kobs at 10000 uM GlcN6P (glucosamine-6-phosphate [7])
U45A U49G | 0.00163 ± 0.00032 s⁻¹ | 1560 ± 570 µM | 5.25e-05 ± 1e-05 s⁻¹ | 0.000194 ± 4.9e-05 s⁻¹ | 0.000385 ± 5.1e-05 s⁻¹ | 0.0012 ± 0.00012 s⁻¹ | 0.00132 ± 0.00015 s⁻¹
U45A C50A | 1.56e-05 ± 1.5e-06 s⁻¹ |  |  |  |  |  | 
U45A C50U | 0.000477 ± 0.00018 s⁻¹ |  |  |  |  | 3.25e-05 ± 1.4e-05 s⁻¹ | 0.000107 ± 1.3e-05 s⁻¹
A42U C71U | 0.000154 ± 2e-05 s⁻¹ | 1320 ± 400 µM | < 1e-05 s⁻¹ |  | 4.75e-05 ± 6.4e-06 s⁻¹ | 0.000122 ± 1.6e-05 s⁻¹ | 0.000129 ± 1.4e-05 s⁻¹
G44C U54C | 0.000264 ± 8.4e-05 s⁻¹ |  |  |  |  | 0.000133 ± 2.4e-05 s⁻¹ | 0.000179 ± 3e-05 s⁻¹
U45A C71A | 0.00337 ± 0.0013 s⁻¹ |  | 0.00019 ± 3.7e-05 s⁻¹ | 0.000518 ± 0.00016 s⁻¹ | 0.000907 ± 0.00022 s⁻¹ | 0.00202 ± 0.00085 s⁻¹ | 0.00396 ± 0.00073 s⁻¹
U45A C71U | 0.0639 ± 0.022 s⁻¹ | 2060 ± 810 µM | 0.00126 ± 0.00019 s⁻¹ | 0.00507 ± 0.00093 s⁻¹ | 0.012 ± 0.0029 s⁻¹ |  | 0.0584 ± 0.019 s⁻¹
A42U C68U | 0.000347 ± 1.8e-05 s⁻¹ | 1360 ± 230 µM |  |  | 0.000108 ± 2.4e-05 s⁻¹ | 0.000254 ± 5.6e-05 s⁻¹ | 0.000302 ± 3e-05 s⁻¹
A42U U55G | 0.000182 ± 1.6e-05 s⁻¹ | 577 ± 150 µM |  | 5.02e-05 ± 1.6e-05 s⁻¹ | 8.8e-05 ± 1.4e-05 s⁻¹ | 0.000164 ± 2.3e-05 s⁻¹ | 0.000167 ± 2.3e-05 s⁻¹
G44C C71U | 1.52e-05 ± 3.3e-06 s⁻¹ |  |  |  |  |  | 
G44C U55G | 5.43e-05 ± 1.8e-05 s⁻¹ |  |  |  |  | 5.66e-05 ± 2.2e-05 s⁻¹ | 4.43e-05 ± 2.1e-05 s⁻¹
G43A A53G | 8.84e-05 ± 2.5e-05 s⁻¹ |  |  |  |  | 0.000132 ± 2.8e-05 s⁻¹ | 7.56e-05 ± 8.5e-06 s⁻¹
G43C A53G C68U | 0.00152 ± 0.00074 s⁻¹ |  | 5.01e-05 ± 1.4e-05 s⁻¹ | 0.000102 ± 2.7e-05 s⁻¹ | 0.000435 ± 0.00011 s⁻¹ | 0.000879 ± 0.00022 s⁻¹ | 
G44U U45G | 0.0224 ± 0.0018 s⁻¹ | 3420 ± 360 µM | 0.000269 ± 4.1e-05 s⁻¹ | 0.00106 ± 0.00018 s⁻¹ | 0.0033 ± 0.00046 s⁻¹ | 0.00801 ± 0.0035 s⁻¹ | 0.017 ± 0.0022 s⁻¹
G44C A53G | 0.000232 ± 7.9e-06 s⁻¹ | 3060 ± 220 µM |  |  | 3.96e-05 ± 1.4e-05 s⁻¹ | 0.000105 ± 1.9e-05 s⁻¹ | 0.000177 ± 3e-05 s⁻¹
G43U A53C | 2.22e-05 ± 5.7e-07 s⁻¹ | 7310 ± 400 µM |  |  |  |  | 
G43U A53U | 2.65e-05 ± 2.2e-06 s⁻¹ | 2760 ± 880 µM |  | < 1e-05 s⁻¹ |  |  | 
